This series relates to O=C(O)[C@H]1O[C@@H](Oc2ccc([N+](=O)[O-])cc2)[C@H](O)[C@@H](O)[C@@H]1O. As to the kind of experiment: purified protein, by the assay type. The note with it: other: pNPG as substrate, optimal pH 5.0, 37 °C.

A word on the Km: it is the concentration of substrate that gives half-maximal velocity. The term kcat denotes the number of substrate molecules converted per active site and unit of time at saturation. As a reminder, the kcat/Km is the second-order rate constant that governs catalysis at low substrate concentration.

For “Bacteroides fragilis GUS (BfGUS) (Bacteroides fragilis NCTC 9343)”, the Km is 580 ± 90 µM, the kcat was 22 s⁻¹ and the kcat/Km was found to be 39000 M⁻¹ s⁻¹.

Values taken from article PMC6351562, “Structure, function, and inhibition of drug reactivating human gut microbial β-glucuronidases” (Scientific Reports, 2019).
